According to paper PMC3975500 (Cell Research, 2014):

B1: Lsm5 (full length), subunit of the crystallized Lsm1-7 complex (natural protein)
chain: MSLPEILPLEVIDKTINQKVLIVLQSNREFEGTLVGFDDFVNVILEDAVEWLIDPEDESRNEKVMQHHGRMLLSGNNIAILVPGGKKTPTEAL
B2: oligo-U (U8) (ssRNA)
RNA: UUUUUUUU
B3: Lsm4 (residues 1-93), subunit of the crystallized Lsm1-7 complex (domain or fragment)
chain: MLPLYLLTNAKGQQMQIELKNGEIIQGILTNVDNWMNLTLSNVTEYSEESAINSEDNAESSKAVKLNEIYIRGTFIKFIKLQDNIIDKVKQQI
B4: Lsm6 (full length), subunit of the crystallized Lsm1-7 complex (natural protein)
chain: MSGKASTEGSVTTEFLSDIIGKTVNVKLASGLLYSGRLESIDGFMNVALSSATEHYESNNNKLLNKFNSDVFLRGTQVMYISEQKI

Tests used:
[1] = molecular target: T1, Lsm7 (full length), subunit of the crystallized Lsm1-7 complex (S. cerevisiae, UniProt P53905 1-115); experiment: crystal structure
T1 sequence: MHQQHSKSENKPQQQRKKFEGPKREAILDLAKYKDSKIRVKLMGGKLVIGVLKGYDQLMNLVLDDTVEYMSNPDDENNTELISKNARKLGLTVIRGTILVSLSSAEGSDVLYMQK

Lsm1-7 heptamer = molecular target: T2, Lsm1-7 heptamer (Saccharomyces cerevisiae, UniProt P47017;P38203;P57743;P40070;P40089;Q06406;P53905 …); experiment: BLI
T2 sequence 1: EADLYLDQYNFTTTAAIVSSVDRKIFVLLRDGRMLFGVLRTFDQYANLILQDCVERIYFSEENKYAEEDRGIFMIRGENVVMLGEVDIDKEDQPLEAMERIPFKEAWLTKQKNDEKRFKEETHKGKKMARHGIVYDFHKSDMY
T2 sequence 2: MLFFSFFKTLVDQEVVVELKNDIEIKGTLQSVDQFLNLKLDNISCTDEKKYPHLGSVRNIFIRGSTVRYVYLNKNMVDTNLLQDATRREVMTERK
T2 sequence 3: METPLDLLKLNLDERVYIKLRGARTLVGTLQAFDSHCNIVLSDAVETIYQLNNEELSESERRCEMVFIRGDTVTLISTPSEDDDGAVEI
T2 sequence 4: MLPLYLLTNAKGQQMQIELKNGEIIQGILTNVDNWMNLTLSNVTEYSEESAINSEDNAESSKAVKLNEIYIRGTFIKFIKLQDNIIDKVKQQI
T2 sequence 5: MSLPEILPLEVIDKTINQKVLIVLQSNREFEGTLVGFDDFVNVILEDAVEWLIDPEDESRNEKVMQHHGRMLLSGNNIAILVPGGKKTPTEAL
T2 sequence 6: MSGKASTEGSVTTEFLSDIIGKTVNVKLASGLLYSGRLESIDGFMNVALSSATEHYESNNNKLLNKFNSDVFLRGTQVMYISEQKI
T2 sequence 7: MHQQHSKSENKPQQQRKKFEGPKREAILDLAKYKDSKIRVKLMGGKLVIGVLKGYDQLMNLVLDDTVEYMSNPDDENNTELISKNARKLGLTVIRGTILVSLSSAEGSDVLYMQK

[2] = molecular target: B1; experiment: crystal structure

Binder	binding result [1]	other results
B1	binds	–
B2	–	Kd (Lsm1-7 heptamer): ~2000 nM
B3	binds	–
B4	–	binding result [2]: binds
